Experimental findings from paper doi:10.1101/2025.05.23.655777v1 are described below.

Test in all cases: purified protein
Substrate in series [1]: O=C(O)CCC(=O)C(=O)O
The following applies: HEPES pH 8.0, 50 µM PLP, 30 °C.

Substrate in series [2]: C[C@H](N)C(=O)O
The following applies: fixed 2-oxoglutarate (6 mM), HEPES pH 8.0, 50 µM PLP, 30 °C.

Substrate in series [3]: N[C@@H](CS)C(=O)O
The following applies: fixed 2-oxoglutarate (6 mM), HEPES pH 8.0, 50 µM PLP, 30 °C.

Substrate in series [4]: N[C@@H](CC(=O)O)C(=O)O
The conditions noted are these: fixed 2-oxoglutarate (6 mM), HEPES pH 8.0, 50 µM PLP, 30 °C.

B1: Ala-AT; alanine aminotransferase 1 (recombinant) (Arabidopsis thaliana) (protein)
chain: SASDSSSSLPVTLDTINPKVIKCEYAVRGEIVNIAQKLQEDLKTNKDAYPFDEIIYCNIGNPQSLGQQPITFFREVLALCSYTALLDESATHGLFSSDSIERAWKILDQIPGRATGAYSHSQGIKGLRDAIADGIEARDGFPADPNDIFMTDGASPGVHMMMQLLITSEKDGILCPIPQYPLYSASIALHGGTLVPYYLDEASGWGLEISELKKQLEDARSKGITVRALAVINPGNPTGQVLSEENQRDVVKFCKQEGLVLLADEVYQENVYVPDKKFHSFKKVARSMGYGEKDLALVSFQSVSKGYYGECGKRGGYMEVTGFTSDVREQIYKMASVNLCSNISGQILASLIMSPPKPGDDSYESYIAEKDGILSSLARRAKTLEEALNKLEGVTCNRAEGAMYLFPCLHLPQKAIAAAEAEKTAPDNFYCKRLLKATGIVVVPGSGFRQVPGTWHFRCTILPQEDKIPAIVDRLTAFHQSFMDEFRD
As a reminder, the Km is the substrate concentration at which the rate is half of its maximum. The kcat is the maximal rate divided by the concentration of active sites. For the protein B1, the Km was found to be 180 ± 10 µM in series [1] (fixed alanine (9 mM)), 2510 ± 180 µM in series [2] and 770 ± 100 µM in series [3]. In addition, the results for the kcat in series [1] (fixed alanine (9 mM)), in series [2] and in series [3] were 262.91 s⁻¹, 367.69 s⁻¹ and 0.14 s⁻¹, respectively.

B2: Asp-AT; aspartate aminotransferase 1 (recombinant) (Arabidopsis thaliana) (protein)
chain: MSSWWKSVEPAPKDPILGVTEAFLADPSPEKVNVGVGAYRDDNGKPVVLECVREAEKRLAGSTFMEYLPMGGSAKMVDLTLKLAYGDNSEFIKDKRIAAVQTLSGTGACRLFADFQKRFSPGSQIYIPVPTWSNHHNIWKDAQVPQKTYHYYHPETKGLDFSALMDDVKNAPEGSFFLLHACAHNPTGVDPTEEQWREISQLFKAKKHFAFFDMAYQGFASGDPARDAKSIRIFLEDGHHIGISQSYAKNMGLYGQRVGCLSVLCEDPKQAVAVKSQLQQLARPMYSNPPLHGAQLVSTILEDPELKSLWLKEVKVMADRIIGMRTTLRESLEKLGSPLSWEHVTKQIGMFCYSGLTPEQVDRLTSEYHIYMTRNGRISMAGVTTGNVGYLANAIHEVTKSS
For the protein B2, the Km in series [4] amounted to 3330 ± 60 µM; in series [1] (fixed aspartate (12 mM)), 460 ± 20 µM; in series [3] it was 15140 ± 640 µM. The kcat in series [4] came to 232.26 s⁻¹; in series [1] (fixed aspartate (12 mM)), 180.60 s⁻¹; in series [3], 0.81 s⁻¹.
